From patent US20030171255 come the findings set out here.

Like-named read-outs stand apart in the source and are kept apart here.

For data set [1], the system named is recombinant DARPP-32.
Data set [2] relates to recombinant DARPP-32 phosphorylated in vitro at Ser137 by CK1.
The target in data set [3] is T1, recombinant DARPP-32 phosphorylated in vitro at Ser137 by CK1.
T1 sequence (Q9UD71 1-204, species assumed, looked up): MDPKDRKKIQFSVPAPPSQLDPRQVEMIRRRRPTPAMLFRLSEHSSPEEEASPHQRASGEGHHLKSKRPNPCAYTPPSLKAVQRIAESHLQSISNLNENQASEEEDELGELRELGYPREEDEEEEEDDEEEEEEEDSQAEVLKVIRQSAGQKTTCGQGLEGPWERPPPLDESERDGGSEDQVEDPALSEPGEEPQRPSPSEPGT
This is another data set of the same source.

On to “CK1 (casein kinase 1) obtained from New England BioLabs”, for which the “stoichiometry of in vitro phosphorylation at Ser137” value in data set [1] is reported as “stoichiometry of 1 mol/mol”.

For “recombinant His-tagged PP2Cd (protein phosphatase 2C delta isoform) cloned from rat striatum”, in data set [2], the “dephosphorylation of phospho-Ser137-DARPP-32 (release of 32P)” value (shortened to “dephosphorylation”) is “PP2Cd did not dephosphorylate phospho-Ser137-DARPP-32”.

One may read the KM as the substrate concentration at which the rate is half of its maximum. The term kcat denotes the maximal rate divided by the concentration of active sites. The term kcat/KM denotes the second-order rate constant that governs catalysis at low substrate concentration. For “recombinant His-tagged PP2Cb (protein phosphatase 2C beta isoform) cloned from rat striatum”, in data set [2], the Michaelis-Menten constant (KM) stood at 25.3 µM; the Vmax, µmol mg^-1 min^-1 (µmol mg^-1 min^-1) came out at 0.99; the “dephosphorylation” value is “the PP2Ca, b and g demonstrated similar initial rates of dephosphorylation”; the kcat worked out at 0.78 s⁻¹. Further, the kcat/KM in data set [2] stood at 31000 M⁻¹ s⁻¹.

B1: recombinant His-tagged PP2Cg (protein phosphatase 2C gamma isoform) cloned from rat striatum (protein)
chain: MGAYLSQPNTVKCSGDGVGAPRLPLPYGFSAMQGWRVSMEDAHNCIPELDNETAMFSVYDGHGGEEVALYCAKYLPDIIKDQKAYKEGKLQKALQDAFLAIDAKLTTDEVIKELAQIAGRPTEDEDDKEKVADEDDVDNEEAALLHEEATMTIEELLTRYGQNCQKGPPHTKSGTGIGDEPEPQGLNGEAGPEDPSRETPSQENGPTAKGHTGPSSNSDHGTEAGQIGEPGTATGEAGPSCSSASDKLPRVAKSKFFEDSEDESDEVEEEEDDSEECSEDEDGYSSEEAENEEDEDDTEEAEEDDDEEMMVPGMEGKEEPGSDSGTTAVVALIRGKQLIVANAGDSRCVVSEAGKALDMSYDHKPEDEVELARIKNAGGKVTMDGRVNGGLNLSRAIGDHFYKRNKNLPPQEQMISALPDIKVLTLTDDHEFMVIACDGIWNVMSSQEVVDFIQSKISQRDENGELRLLSSIVEELLDQCLAPDTSGDGTGCDNMTCIIICFKPRNTVELQPESGKRKLEEALSTEGAEENGNSDKKKAKRD
Turning to B1, in data set [3], the KM was found to be 7 µM; the Vmax, µmol mg^-1 min^-1 (µmol mg^-1 min^-1) worked out at 0.31; the “dephosphorylation” value was “the PP2Ca, b and g demonstrated similar initial rates of dephosphorylation”; the catalytic constant (kcat) is 0.32 s⁻¹. The kcat/KM in data set [3] was 45000 M⁻¹ s⁻¹.

B2: recombinant His-tagged PP2Ca (protein phosphatase 2C alpha isoform) cloned from rat striatum (protein)
chain: MGAFLDKPKMEKHNAQGQGNGLRYGLSSMQGWRVEMEDAHTAVIGLPSGLETWSFFAVYDGHAGSQVAKYCCEHLLDHITNNQDFKGSAGAPSVENVKNGIRTGFLEIDEHMRVMSEKKHGADRSGSTAVGVLISPQHTYFINCGDSRGLLCRNRKVHFFTQDHKPSNPLEKERIQNAGGSVMIQRVNGSLAVSRALGDFDYKCVHGKGPTEQLVSPEPEVHDIERSEEDDQFIILACDGIWDVMGNEELCDFVRSRLEVTDDLEKVCNEVVDTCLYKGSRDNMSVILICFPNAPKVSAEAVKKEAELDKYLENRVEEIIKKQGEGVPDLVHVMRTLASENIPSLPPGGELASKRNVIEAVYNRLNPYKNDDTDSASTDDMW
For the molecule B2, in data set [3], the KM worked out at 13.1 µM; the Vmax, µmol mg^-1 min^-1 (µmol mg^-1 min^-1) amounted to 0.39; the “dephosphorylation” value is “the PP2Ca, b and g demonstrated similar initial rates of dephosphorylation”; the kcat came to 0.31 s⁻¹. Besides, in data set [3], the kcat/KM stood at 23000 M⁻¹ s⁻¹.
